Sequences and labels used below:
T1: human D2H transporter receptor domain, amino acid residues 387-685, His-tag fusion protein (human, UniProt Q07837 387-685)
T1 construct: Expressed as His-tag fusion, purified under denaturing conditions, coated on plates; not shown: poly-histidine tag (pET His-tag) at the NH2-terminal end
T1 sequence: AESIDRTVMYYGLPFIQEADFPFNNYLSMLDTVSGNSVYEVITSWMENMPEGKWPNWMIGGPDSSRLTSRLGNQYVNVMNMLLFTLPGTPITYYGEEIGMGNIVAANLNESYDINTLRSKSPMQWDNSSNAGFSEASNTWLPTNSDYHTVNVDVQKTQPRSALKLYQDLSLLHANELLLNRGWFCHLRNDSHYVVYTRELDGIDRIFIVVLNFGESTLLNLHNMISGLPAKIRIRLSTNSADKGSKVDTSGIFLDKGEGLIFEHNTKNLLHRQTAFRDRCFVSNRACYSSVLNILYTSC

T2: human intestinal peptide-associated transporter HPT1 receptor domain, amino acid residues 29-273, His-tag … (human, UniProt Q12864 29-273)
T2 construct: Expressed as His-tag fusion, purified under denaturing conditions, coated on plates; not shown: poly-histidine tag (pET His-tag) at the NH2-terminal end
T2 sequence: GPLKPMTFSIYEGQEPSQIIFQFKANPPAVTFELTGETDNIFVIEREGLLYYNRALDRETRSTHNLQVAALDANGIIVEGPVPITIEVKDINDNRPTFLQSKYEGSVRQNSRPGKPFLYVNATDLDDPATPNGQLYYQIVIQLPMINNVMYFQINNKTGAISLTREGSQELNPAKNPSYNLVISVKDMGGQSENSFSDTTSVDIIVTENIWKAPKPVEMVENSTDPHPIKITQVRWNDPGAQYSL

B1: phage HAX40 (peptide)
peptide: REFAERRLWGCDDLSWRLDAEGCGPTPSNRAVKHRKPRPRSPAL
notes: pIII and flanks not included; also called H44

For one assay, the target named is T1, human D2H transporter receptor domain, …. The assay can be described thus: phage ELISA, OD on D2H over OD on BSA. Here is the method:
(§1) 6.6. Receptor ELISA Procedure 96 well plates were coated overnight with GIT receptor, BSA and, optionally, IDE (insulin degrading enzyme, an irrelevant His-fusion protein) or hTF. The plates were blocked for one hour with 0.5% BSA-PBS. After clarification, the amplified phage were diluted 1:100 in 1% BSA plus 0.05% Tween 20 in PBS and added to the plates. Following incubation of the plates on a rotator for 1 to 2 hours, the plates were washed 5 times with 1% BSA plus 0.05% Tween 20 in PBS. […] After the plates were washed 5 times, as described above, TMB substrate was added to the wells. The plates were read at 650 nm absorbance.
(§2) Binding to fixed Caco-2 cells, D2H and BSA was examined.
As for RYKHDIGCDAGVDKKSSSVRGGCGAHSSPPRAGRGPRGTMVSRL (pIII and flanks not included) [phage DCX8], the D2H/BSA was determined as 3 ratio. The same measure, in the same setting: as for SQGSKQCMQYRTGRLTVGSEYGCGMNPARHATPAYPARLLPRYR (pIII and flanks not included) [phage DCX11], the figure is 3 ratio; as for SVGNDKTSRPVSFYGRVSDLWNASLMPKRTPSSKRHDDG (pIII and flanks not included) [phage DCX45], 4 ratio; as for RYSGLSPRDNGPACSQEATLEGCGAQRLMSTRRKGRNSRPGWTL (pIII and flanks not included) [phage DCX42], 2 ratio. On the same count and under the same terms, with SGRTTSEISGLWGWGDDRSGYGWGNTLRPNYIPYRQATNRHRYT (pIII and flanks not included) [phage DCX26] the figure was 4 ratio. On to RWNWTVLPATGGHYWTRSTDYHAINNHRPSIPHQHPTPI (pIII and flanks not included) [phage DCX33], for which the D2H/BSA worked out at 6 ratio.

For the next assay, the target named is T2, human intestinal peptide-associated …. Nature of the assay: phage ELISA, OD on HPT1 over OD on BSA. Here is the method: as §1
As for RHISEYSFANSHLMGGESKRKGCGINGSFSPTCPRSPTPAFRRT (pIII and flanks not included) [phage HCA3], the HPT1/BSA turned out to be 1 ratio.

In another assay the target is T1, human D2H transporter receptor domain, …. The assay can be described thus: phage ELISA, coated D2H domain. Here is the method:
as §1, §2
Molecule RYKHDIGCDAGVDKKSSSVRGGCGAHSSPPRAGRGPRGTMVSRL (pIII and flanks not included) [phage DCX8] yielded an OD of 0.163 OD 650 nm. Still for that read-out and setting: with SQGSKQCMQYRTGRLTVGSEYGCGMNPARHATPAYPARLLPRYR (pIII and flanks not included) [phage DCX11] the figure was 0.222 OD 650 nm; with SVGNDKTSRPVSFYGRVSDLWNASLMPKRTPSSKRHDDG (pIII and flanks not included) [phage DCX45], 0.336 OD 650 nm. On the same count and under the same terms, with RYSGLSPRDNGPACSQEATLEGCGAQRLMSTRRKGRNSRPGWTL (pIII and flanks not included) [phage DCX42] the figure was 0.158 OD 650 nm; with SGRTTSEISGLWGWGDDRSGYGWGNTLRPNYIPYRQATNRHRYT (pIII and flanks not included) [phage DCX26], 0.956 OD 650 nm. Still for that read-out and setting: with RWNWTVLPATGGHYWTRSTDYHAINNHRPSIPHQHPTPI (pIII and flanks not included) [phage DCX33] the figure was 0.616 OD 650 nm.

The target in the next assay is T2, human intestinal peptide-associated …. Nature of the assay: phage ELISA, coated HPT1 domain.
Consider SDHALGTNLRSDNAKEPGDYNCCGNGNSTGRKVFNRRRPSAIPT (pIII and flanks not included) [phage HAX42], for which the OD was found to be 0.32 OD 650 nm.

SREEANWDGYKREMSHRSRFWDATHLSRPRRPANSGDPN (pIII and flanks not included) [phage HAX9] registered an OD of 0.382 OD 650 nm. On the same count and under the same terms, as for B1, the figure is 0.991 OD 650 nm.

A further assay shares this target. The assay can be described thus: phage ELISA, OD on HPT1 over OD on BSA. The source holds these as a separate data set.
The molecule SDHALGTNLRSDNAKEPGDYNCCGNGNSTGRKVFNRRRPSAIPT (pIII and flanks not included) [phage HAX42] registered an HPT/BSA of 5 ratio.

With SREEANWDGYKREMSHRSRFWDATHLSRPRRPANSGDPN (pIII and flanks not included) [phage HAX9], the HPT/BSA was 5 ratio. The molecule B1 returned an HPT/BSA of 15 ratio.

The record behind these values is patent US7135457 (CYTOGEN, dated 2006).
